Laboratory results reported in patent US20190134153A1, “IMMUNOMODULATORY EFFECT OF INHALED KINASE INHIBITOR PEPTIDES IN LUNG” (MOERAE MATRIX, INC., priority 2017, published 2019).

Columns and labels:
Assay in all cases: Kinase Profiling Assay
Assay type in all cases: biochemical
Settings in all cases: 100 μM
[1] = target: IR(h) (Homo sapiens, UniProt P06213)
[2] = target: Tie2(Y897S)(h) (Homo sapiens, UniProt Q02763, Y897S)
[3] = target: T1, Tec(h) activated (Homo sapiens, UniProt P42680)
T1 sequence (P42680 1-631): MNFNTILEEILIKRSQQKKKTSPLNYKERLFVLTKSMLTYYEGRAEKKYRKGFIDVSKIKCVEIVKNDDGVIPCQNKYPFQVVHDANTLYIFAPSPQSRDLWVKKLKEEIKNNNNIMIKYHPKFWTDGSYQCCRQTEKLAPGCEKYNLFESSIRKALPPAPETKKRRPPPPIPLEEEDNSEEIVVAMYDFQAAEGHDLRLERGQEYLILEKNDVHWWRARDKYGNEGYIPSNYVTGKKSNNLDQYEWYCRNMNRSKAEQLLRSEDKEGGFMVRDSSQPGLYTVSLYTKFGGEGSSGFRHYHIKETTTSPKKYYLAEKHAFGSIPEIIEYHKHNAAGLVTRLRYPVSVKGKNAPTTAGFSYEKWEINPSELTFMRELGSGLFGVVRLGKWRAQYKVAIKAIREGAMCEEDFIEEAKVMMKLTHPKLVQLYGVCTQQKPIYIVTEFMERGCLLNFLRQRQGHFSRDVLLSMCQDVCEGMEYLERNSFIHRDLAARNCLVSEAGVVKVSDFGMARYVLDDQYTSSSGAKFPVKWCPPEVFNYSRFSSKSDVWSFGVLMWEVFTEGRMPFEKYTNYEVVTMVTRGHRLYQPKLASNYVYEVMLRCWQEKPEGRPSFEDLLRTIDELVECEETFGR

[4] = target: ALK(h) (Homo sapiens, UniProt Q9UM73)
[5] = target: STK33(h) (Homo sapiens, UniProt Q9BYT3)
[6] = target: NEK6(h) (Homo sapiens, UniProt Q9HC98)
[7] = target: T2, ALK4(h) (Homo sapiens, UniProt P36896)
T2 sequence (P36896 24-505): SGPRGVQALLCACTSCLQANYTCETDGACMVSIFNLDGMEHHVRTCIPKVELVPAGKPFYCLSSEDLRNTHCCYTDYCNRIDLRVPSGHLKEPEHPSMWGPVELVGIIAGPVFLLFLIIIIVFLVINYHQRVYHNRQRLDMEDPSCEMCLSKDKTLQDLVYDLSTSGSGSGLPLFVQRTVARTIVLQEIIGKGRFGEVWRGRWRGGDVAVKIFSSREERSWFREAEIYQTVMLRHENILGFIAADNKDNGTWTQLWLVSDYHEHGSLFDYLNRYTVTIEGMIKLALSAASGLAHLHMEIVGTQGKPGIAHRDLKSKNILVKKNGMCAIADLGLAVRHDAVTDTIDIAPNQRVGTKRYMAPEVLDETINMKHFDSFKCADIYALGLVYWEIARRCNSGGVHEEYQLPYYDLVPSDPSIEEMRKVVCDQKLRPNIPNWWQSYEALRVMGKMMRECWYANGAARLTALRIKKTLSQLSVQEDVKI

[8] = target: T3, Mer(h) (Homo sapiens, UniProt Q12866)
T3 sequence (Q12866 21-999): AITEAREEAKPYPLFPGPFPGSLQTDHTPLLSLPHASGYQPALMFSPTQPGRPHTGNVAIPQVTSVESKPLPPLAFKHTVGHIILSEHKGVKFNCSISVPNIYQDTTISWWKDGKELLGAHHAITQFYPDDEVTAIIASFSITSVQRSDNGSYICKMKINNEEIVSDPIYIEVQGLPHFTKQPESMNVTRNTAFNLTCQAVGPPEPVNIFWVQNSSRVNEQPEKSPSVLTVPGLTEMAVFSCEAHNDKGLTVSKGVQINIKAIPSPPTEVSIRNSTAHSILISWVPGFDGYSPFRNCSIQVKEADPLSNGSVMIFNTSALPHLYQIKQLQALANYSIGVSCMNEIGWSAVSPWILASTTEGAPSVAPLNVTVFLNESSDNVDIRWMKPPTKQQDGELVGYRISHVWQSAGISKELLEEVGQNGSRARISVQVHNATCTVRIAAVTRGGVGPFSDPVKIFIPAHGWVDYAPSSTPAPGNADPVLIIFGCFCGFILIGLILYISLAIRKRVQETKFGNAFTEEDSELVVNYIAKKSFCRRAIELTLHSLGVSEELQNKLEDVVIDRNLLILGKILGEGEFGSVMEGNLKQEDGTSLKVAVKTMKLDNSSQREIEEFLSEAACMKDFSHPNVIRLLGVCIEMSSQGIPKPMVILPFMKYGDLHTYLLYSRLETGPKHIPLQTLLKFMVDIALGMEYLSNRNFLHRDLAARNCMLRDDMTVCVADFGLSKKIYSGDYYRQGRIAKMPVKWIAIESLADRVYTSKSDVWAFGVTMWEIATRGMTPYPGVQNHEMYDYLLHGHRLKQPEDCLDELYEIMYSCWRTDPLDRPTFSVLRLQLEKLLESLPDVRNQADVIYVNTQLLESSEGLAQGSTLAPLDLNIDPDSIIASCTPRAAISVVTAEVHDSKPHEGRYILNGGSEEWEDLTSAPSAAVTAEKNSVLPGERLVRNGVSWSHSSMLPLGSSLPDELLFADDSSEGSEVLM

[9] = target: PDGFRα(h) (Homo sapiens, UniProt P16234)
[10] = target: PKCθ(h) (Homo sapiens, UniProt Q04759)
[11] = target: Src(T341M)(h) (Homo sapiens, UniProt P12931, T341M)
[12] = target: CK2(h) (Homo sapiens, UniProt P68400)
[13] = target: EGFR(h) (Homo sapiens, UniProt P00533)
[14] = target: Ron(h) (Homo sapiens, UniProt Q04912)
[15] = target: TrkA(h) (Homo sapiens, UniProt P04629)
Sequence of TrkA(h) (P04629 33-796): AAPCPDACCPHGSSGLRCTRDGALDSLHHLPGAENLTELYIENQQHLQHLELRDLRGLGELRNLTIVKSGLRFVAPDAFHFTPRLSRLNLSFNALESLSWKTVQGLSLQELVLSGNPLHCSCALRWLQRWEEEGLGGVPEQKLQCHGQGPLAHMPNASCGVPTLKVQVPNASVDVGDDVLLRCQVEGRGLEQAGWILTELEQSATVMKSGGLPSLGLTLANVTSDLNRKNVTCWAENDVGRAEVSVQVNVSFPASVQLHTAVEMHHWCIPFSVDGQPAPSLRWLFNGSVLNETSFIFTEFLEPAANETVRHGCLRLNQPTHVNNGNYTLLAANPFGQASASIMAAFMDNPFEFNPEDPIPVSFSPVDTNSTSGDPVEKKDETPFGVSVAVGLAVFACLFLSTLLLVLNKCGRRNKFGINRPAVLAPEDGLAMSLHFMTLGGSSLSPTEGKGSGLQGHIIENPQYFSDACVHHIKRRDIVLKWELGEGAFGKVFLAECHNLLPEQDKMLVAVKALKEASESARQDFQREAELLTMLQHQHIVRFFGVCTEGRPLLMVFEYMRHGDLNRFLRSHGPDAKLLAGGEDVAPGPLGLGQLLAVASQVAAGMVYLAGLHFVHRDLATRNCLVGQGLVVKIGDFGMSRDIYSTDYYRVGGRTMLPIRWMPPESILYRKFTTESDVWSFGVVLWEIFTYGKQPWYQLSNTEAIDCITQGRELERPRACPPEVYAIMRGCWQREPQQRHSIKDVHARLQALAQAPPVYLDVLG

Sequence of CK2(h) (P68400 whole entry): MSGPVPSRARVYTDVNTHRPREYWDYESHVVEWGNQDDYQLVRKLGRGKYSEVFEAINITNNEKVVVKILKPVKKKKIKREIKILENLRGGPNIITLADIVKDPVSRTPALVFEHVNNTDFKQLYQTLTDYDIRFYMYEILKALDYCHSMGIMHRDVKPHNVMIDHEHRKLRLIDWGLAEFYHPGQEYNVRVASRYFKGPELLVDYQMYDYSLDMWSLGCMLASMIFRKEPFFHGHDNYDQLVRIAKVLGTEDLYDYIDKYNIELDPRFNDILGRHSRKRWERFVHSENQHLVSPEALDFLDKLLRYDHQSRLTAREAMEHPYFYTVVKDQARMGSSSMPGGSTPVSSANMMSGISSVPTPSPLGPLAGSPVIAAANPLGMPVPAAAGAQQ
Sequence of CK2(h) (P67870 whole entry partner): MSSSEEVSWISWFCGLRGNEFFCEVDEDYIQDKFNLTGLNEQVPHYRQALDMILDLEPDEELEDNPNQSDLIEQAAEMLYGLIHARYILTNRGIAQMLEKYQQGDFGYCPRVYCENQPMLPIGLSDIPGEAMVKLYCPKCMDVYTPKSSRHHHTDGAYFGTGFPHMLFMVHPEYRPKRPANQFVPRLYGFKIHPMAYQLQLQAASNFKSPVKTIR
Sequence of Tie2(Y897S)(h) (Q02763 23-1124 Y897S): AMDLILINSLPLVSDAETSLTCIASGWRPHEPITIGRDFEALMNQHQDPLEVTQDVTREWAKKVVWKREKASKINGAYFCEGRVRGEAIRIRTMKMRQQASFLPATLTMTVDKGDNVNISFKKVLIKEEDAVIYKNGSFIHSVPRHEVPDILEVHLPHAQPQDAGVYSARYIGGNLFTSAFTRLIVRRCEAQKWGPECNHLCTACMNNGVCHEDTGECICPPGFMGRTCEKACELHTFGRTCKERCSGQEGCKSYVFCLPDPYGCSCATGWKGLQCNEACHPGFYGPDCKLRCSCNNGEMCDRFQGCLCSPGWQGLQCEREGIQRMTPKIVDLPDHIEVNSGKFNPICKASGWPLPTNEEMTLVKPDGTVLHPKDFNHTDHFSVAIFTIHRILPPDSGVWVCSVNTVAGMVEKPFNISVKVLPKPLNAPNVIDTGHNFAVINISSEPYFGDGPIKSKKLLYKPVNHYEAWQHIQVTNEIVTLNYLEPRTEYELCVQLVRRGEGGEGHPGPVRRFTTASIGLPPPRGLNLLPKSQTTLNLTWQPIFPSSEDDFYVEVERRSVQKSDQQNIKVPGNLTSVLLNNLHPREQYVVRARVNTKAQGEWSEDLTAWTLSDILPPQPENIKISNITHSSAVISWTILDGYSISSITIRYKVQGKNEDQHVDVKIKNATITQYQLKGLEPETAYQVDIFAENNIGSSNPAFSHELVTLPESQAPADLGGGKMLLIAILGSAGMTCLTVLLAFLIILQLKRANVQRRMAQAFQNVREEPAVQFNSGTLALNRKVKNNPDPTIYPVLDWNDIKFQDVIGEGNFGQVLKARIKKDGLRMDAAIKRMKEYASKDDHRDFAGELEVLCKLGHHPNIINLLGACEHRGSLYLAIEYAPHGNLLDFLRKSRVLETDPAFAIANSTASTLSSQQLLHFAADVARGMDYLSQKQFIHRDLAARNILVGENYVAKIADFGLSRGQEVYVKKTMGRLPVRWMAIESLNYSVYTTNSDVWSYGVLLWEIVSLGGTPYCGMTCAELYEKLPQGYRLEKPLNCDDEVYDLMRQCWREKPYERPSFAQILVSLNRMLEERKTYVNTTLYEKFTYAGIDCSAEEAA
Sequence of ALK(h) (Q9UM73 19-1620): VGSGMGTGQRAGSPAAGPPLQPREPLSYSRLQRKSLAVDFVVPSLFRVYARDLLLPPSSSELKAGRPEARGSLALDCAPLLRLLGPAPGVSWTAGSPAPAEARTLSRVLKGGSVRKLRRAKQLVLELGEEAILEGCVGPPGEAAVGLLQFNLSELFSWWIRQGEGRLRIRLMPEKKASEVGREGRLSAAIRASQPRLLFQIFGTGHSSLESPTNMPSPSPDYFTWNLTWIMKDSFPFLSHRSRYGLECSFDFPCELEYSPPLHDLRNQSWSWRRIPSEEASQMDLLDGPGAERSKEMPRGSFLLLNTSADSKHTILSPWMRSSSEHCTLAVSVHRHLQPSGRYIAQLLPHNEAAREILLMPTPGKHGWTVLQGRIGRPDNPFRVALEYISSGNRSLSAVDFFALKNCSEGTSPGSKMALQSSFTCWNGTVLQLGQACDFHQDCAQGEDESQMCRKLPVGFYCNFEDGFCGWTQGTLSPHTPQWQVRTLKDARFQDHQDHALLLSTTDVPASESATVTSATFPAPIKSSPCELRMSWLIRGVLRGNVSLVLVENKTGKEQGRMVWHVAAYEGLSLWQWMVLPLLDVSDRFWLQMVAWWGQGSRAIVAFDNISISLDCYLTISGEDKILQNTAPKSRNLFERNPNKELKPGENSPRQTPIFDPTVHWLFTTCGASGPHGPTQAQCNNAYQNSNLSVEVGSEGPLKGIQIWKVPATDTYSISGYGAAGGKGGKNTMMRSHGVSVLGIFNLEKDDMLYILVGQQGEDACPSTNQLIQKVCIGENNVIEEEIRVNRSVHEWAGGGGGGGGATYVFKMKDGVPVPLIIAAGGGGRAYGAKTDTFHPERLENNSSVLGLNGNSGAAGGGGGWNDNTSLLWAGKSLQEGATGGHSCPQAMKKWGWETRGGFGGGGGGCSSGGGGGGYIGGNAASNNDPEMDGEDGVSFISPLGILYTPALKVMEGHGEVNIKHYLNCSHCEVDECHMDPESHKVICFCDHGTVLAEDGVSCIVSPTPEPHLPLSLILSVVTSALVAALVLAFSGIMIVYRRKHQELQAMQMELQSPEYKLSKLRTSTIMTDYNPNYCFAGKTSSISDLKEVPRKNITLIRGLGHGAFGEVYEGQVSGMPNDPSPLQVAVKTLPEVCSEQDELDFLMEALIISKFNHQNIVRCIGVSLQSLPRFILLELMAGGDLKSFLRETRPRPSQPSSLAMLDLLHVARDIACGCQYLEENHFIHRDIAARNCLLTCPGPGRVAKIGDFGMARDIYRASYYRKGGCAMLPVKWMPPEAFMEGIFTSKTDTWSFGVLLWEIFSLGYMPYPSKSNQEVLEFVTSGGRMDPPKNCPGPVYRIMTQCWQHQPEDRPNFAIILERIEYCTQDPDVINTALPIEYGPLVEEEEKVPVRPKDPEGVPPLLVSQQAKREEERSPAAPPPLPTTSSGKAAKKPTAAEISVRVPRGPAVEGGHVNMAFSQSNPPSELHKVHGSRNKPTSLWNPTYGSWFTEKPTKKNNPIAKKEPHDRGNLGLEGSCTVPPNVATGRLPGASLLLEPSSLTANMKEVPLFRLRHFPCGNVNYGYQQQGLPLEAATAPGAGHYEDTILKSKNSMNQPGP
Sequence of STK33(h) (Q9BYT3 whole entry): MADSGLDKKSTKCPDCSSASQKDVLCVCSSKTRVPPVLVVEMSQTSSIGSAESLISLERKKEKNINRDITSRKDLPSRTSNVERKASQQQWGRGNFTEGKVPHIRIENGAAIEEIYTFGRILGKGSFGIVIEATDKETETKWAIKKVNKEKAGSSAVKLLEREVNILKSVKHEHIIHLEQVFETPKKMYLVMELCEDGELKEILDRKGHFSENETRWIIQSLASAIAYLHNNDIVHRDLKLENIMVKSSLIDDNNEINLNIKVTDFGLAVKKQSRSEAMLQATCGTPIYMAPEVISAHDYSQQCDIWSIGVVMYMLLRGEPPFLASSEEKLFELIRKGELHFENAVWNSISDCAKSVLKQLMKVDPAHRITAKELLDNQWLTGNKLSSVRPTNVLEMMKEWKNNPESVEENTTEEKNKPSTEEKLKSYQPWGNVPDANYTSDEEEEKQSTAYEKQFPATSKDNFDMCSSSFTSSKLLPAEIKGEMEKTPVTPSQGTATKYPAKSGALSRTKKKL
Sequence of NEK6(h) (Q9HC98 whole entry): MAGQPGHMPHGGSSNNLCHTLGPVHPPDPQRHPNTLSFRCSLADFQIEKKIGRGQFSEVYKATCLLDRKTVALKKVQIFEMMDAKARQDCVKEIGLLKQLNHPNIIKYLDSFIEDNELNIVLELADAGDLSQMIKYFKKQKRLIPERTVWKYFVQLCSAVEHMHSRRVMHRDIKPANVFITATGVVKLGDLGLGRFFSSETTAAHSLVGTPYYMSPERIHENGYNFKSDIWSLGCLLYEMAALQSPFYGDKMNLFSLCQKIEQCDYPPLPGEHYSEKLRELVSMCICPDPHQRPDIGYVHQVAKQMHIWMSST

Sequence | % activity [1] [%] | % activity [2] [%] | % activity [3] [%] | % activity [4] [%] | % activity [5] [%] | % activity [6] [%] | % activity [7] [%] | % activity [8] [%] | % activity [9] [%] | % activity [10] [%] | % activity [11] [%] | % activity [12] [%] | % activity [13] [%] | % activity [14] [%] | % activity [15] [%]
FAKLAARLYRKALARQLGVAA [MMI-0300] | 96 | 83 | 56 | 19 | 45 | 82 | 140 | 52 | 65 | 88 | 70 | 90 | 21 | 93 | 25
KAFAKLAARLYRKALARQLGVAA [MMI-0400] | 85 | 87 | 29 | 16 | 52 | 85 | 130 | 50 | 40 | 76 | 76 | 101 | 16 | 79 | 17
HRRIKAWLKKIKALARQLGVAA [MMI-0500] | 95 | 80 | 33 | 12 | 16 | 49 | 81 | 17 | 40 | 62 | 59 | 93 | −1 | 46 | 24
YARAAARQARAKALNRQLGVA [MMI-0200] | 90 | 85 | 77 | 95 | 98 | 98 | 152 | 90 | 108 | 101 | 56 | 83 | 83 | 120 | 
